From PMC7183766

Biological target: SpirNT(A*)-biotin (on streptavidin beads) (Drosophila melanogaster) (UniProt Q9U1K1)
Test: TIRF microscopy of actin filaments on protein-coated beads

Chain of SpirNT(A*)-biotin (on streptavidin beads) (Drosophila melanogaster) (Q9U1K1 1-490): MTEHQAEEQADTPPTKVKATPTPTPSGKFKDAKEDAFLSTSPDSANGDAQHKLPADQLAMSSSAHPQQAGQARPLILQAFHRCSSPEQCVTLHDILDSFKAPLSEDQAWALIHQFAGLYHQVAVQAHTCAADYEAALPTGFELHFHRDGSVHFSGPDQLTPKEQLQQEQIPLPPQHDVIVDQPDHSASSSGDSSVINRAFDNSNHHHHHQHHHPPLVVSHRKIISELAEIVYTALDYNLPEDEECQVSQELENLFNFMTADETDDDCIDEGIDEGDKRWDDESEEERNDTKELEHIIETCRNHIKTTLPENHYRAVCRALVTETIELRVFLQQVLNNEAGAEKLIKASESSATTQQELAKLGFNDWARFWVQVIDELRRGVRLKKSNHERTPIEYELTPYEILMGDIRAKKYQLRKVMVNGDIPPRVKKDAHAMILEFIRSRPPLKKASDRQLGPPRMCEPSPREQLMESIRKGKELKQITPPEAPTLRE

Substance “actin filaments (Acanthamoeba castellani actin) (natural protein)” has a koff of 0.011 s⁻¹.
